Source: publication PMC8567228 (EMBO Reports, 2021)
Each block holds one binder with its values, some of them ahead of it.

What was measured:
[1] = target: Rab8a phosphorylated at Thr72 (pRab8a) (human) (UniProt P61006)
[2] = target: T1, pThr73-Rab10 switch 2 phosphopeptide (human)
T1 sequence (peptide, phosphothreonine (T*) at Thr73): AGQERFHTITTSYYR

[3] = target: T2, pThr72-Rab8a switch 2 phosphopeptide (residues 65-79) (human)
T2 sequence (peptide, phosphothreonine (T*) at Thr72): AGQERFRTITTAYYR

[4] = target: T3, Rab8a phosphorylated at Thr72 (pRab8a) (human), P61006; assay: cross-linking; DSBU 9.375 mM, 10 min at RT; 35 µM Rab8a and 28 µM PPM1H pre-incubated 1 h at 30°C in 40 mM HEPES pH 7.5, 150 mM NaCl, 2 mM MgCl2; SDS-PAGE, bands digested and read by LC MS/MS
T3 chain: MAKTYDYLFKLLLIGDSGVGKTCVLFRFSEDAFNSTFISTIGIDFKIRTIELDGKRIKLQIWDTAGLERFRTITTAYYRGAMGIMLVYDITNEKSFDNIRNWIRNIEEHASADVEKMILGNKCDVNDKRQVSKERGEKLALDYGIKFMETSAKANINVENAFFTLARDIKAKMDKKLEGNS

[5] = target: the molecule itself; assay: crystal structure; vapour diffusion crystals, space group P212121, two molecules of PPM1H in the asymmetric unit; with Mg2+ (7kpr, 7l4j, 7l4i) or Mn2+ (7n0z)
[6] = target: the molecule itself; assay: SEC-MALS; His6-tagged proteins injected at 2 mg/ml (100 μl) into a Superdex 200 column; DAWN Heleos and Optilab TrEX detectors

- initial rate of phosphate release (malachite green time course), 16 μM pThr72-Rab8a protein (GTPγS), against wild-type PPM1H (fold reduction) [1]: > 20
- initial rate of phosphate release (malachite green time course), 32 μM pThr73-Rab10 peptide, against wild-type PPM1H (fold reduction) [2]: > 20
- initial rate of phosphate release (malachite green time course), 32 μM pThr72-Rab8a peptide, against wild-type PPM1H (fold reduction) [3]: > 20
B1: His6-SUMO-PPM1H[K88A], full length (enzyme)
chain: MLTRVKSAVANFMGGIMAGSSGSEHGGGSCGGSDLPLRFPYGRPEFLGLSQDEVECSADHIARPILILKETRRLPWATGYAEVINAGASTHNEDQASCEVLTVKKKAGAVTSTPNRNSSKRRSSLPNGEGLQLKENSESEGVSCHYWSLFDGHAGSGAAVVASRLLQHHITEQLQDIVDILKNSAVLPPTCLGEEPENTPANSRTLTRAASLRGGVGAPGSPSTPPTRFFTEKKIPHECLVIGALESAFKEMDLQIERERSSYNISGGCTALIVICLLGKLYVANAGDSRAIIIRNGEIIPMSSEFTPETERQRLQYLAFMQPHLLGNEFTHLEFPRRVQRKELGKKMLYRDFNMTGWAYKTIEDEDLKFPLIYGEGKKARVMATIGVTRGLGDHDLKVHDSNIYIKPFLSSAPEVRIYDLSKYDHGSDDVLILATDGLWDVLSNEEVAEAITQFLPNCDPDDPHRYTLAAQDLVMRARGVLKDRGWRISNDRLGSGDDISVYVIPLIHGNKLS

- initial activity of phosphate release (malachite green time course), 16 μM pThr72-Rab8a protein (GTPγS), against wild-type PPM1H (fold reduction) [1]: 2
B2: His6-SUMO-PPM1H[R338A], full length (enzyme)
chain: MLTRVKSAVANFMGGIMAGSSGSEHGGGSCGGSDLPLRFPYGRPEFLGLSQDEVECSADHIARPILILKETRRLPWATGYAEVINAGKSTHNEDQASCEVLTVKKKAGAVTSTPNRNSSKRRSSLPNGEGLQLKENSESEGVSCHYWSLFDGHAGSGAAVVASRLLQHHITEQLQDIVDILKNSAVLPPTCLGEEPENTPANSRTLTRAASLRGGVGAPGSPSTPPTRFFTEKKIPHECLVIGALESAFKEMDLQIERERSSYNISGGCTALIVICLLGKLYVANAGDSRAIIIRNGEIIPMSSEFTPETERQRLQYLAFMQPHLLGNEFTHLEFPRAVQRKELGKKMLYRDFNMTGWAYKTIEDEDLKFPLIYGEGKKARVMATIGVTRGLGDHDLKVHDSNIYIKPFLSSAPEVRIYDLSKYDHGSDDVLILATDGLWDVLSNEEVAEAITQFLPNCDPDDPHRYTLAAQDLVMRARGVLKDRGWRISNDRLGSGDDISVYVIPLIHGNKLS

- stoichiometry N (PPM1H per pRab8a (2:2)) [4]: 1
B3: Recombinant PPM1H[D288A] used for DSBU cross-linking, Q9ULR3 1-514 (enzyme)
chain: SDLPLRFPYGRPEFLGLSQDEVECSADHIARPILILKETRRLPWATGYAEVINAGKSTHNEDQASCEVLTVKKKAGAVTSTPNRNSSKRRSSLPNGEGLQLKENSESEGVSCHYWSLFDGHAGSGAAVVASRLLQHHITEQLQDIVDILKNSAVLPPTCLGEEPENTPANSRTLTRAASLRGGVGAPGSPSTPPTRFFTEKKIPHECLVIGALESAFKEMDLQIERERSSYNISGGCTALIVICLLGKLYVANAGASRAIIIRNGEIIPMSSEFTPETERQRLQYLAFMQPHLLGNEFTHLEFPRRVQRKELGKKMLYRDFNMTGWAYKTIEDEDLKFPLIYGEGKKARVMATIGVTRGLGDHDLKVHDSNIYIKPFLSSAPEVRIYDLSKYDHGSDDVLILATDGLWDVLSNEEVAEAITQFLPNCDPDDPHRYTLAAQDLVMRARGVLKDRGWRISNDRLGSGDDISVYVIPLIHGNKLS
modifications: not checked

B4: PPM1H^DA (residues 33-514, D288A), crystallised form (enzyme, human, UniProt Q9ULR3 33-514, looked up)
chain: SDLPLRFPYGRPEFLGLSQDEVECSADHIARPILILKETRRLPWATGYAEVINAGKSTHNEDQASCEVLTVKKKAGAVTSTPNRNSSKRRSSLPNGEGLQLKENSESEGVSCHYWSLFDGHAGSGAAVVASRLLQHHITEQLQDIVDILKNSAVLPPTCLGEEPENTPANSRTLTRAASLRGGVGAPGSPSTPPTRFFTEKKIPHECLVIGALESAFKEMDLQIERERSSYNISGGCTALIVICLLGKLYVANAGASRAIIIRNGEIIPMSSEFTPETERQRLQYLAFMQPHLLGNEFTHLEFPRRVQRKELGKKMLYRDFNMTGWAYKTIEDEDLKFPLIYGEGKKARVMATIGVTRGLGDHDLKVHDSNIYIKPFLSSAPEVRIYDLSKYDHGSDDVLILATDGLWDVLSNEEVAEAITQFLPNCDPDDPHRYTLAAQDLVMRARGVLKDRGWRISNDRLGSGDDISVYVIPLIHGNKLS
notes: PPM1H phosphatase, human, residues 33-514 with D288A (substrate-trapping mutant); Two molecules in the asymmetric unit; two Mg2+ ions at the active site; also called pNIC28-Bsa4-PPM1H^33-514 D288A; source: E. coli, purified (nickel agarose, TEV cleavage, second Ni column, Superdex 200)
- binding result [5]: binds

B5: PPM1H^DA-LD (residues 33-514, D288A, loop 188-226 replaced by GSGS, C56A), crystallised form (enzyme, human)
chain: SDLPLRFPYGRPEFLGLSQDEVEASADHIARPILILKETRRLPWATGYAEVINAGKSTHNEDQASCEVLTVKKKAGAVTSTPNRNSSKRRSSLPNGEGLQLKENSESEGVSCHYWSLFDGHAGSGAAVVASRLLQHHITEQLQDIVDILKNSAVLGSGSTRFFTEKKIPHECLVIGALESAFKEMDLQIERERSSYNISGGCTALIVICLLGKLYVANAGASRAIIIRNGEIIPMSSEFTPETERQRLQYLAFMQPHLLGNEFTHLEFPRRVQRKELGKKMLYRDFNMTGWAYKTIEDEDLKFPLIYGEGKKARVMATIGVTRGLGDHDLKVHDSNIYIKPFLSSAPEVRIYDLSKYDHGSDDVLILATDGLWDVLSNEEVAEAITQFLPNCDPDDPHRYTLAAQDLVMRARGVLKDRGWRISNDRLGSGDDISVYVIPLIHGNKLS
notes: PPM1H phosphatase, human, residues 33-187 with C56A; short linker that replaces the loop 188-226; PPM1H phosphatase, human, residues 227-514 with D288A; also called pET28a(+)-PPM1H^D288A LoopDEL; source: E. coli, purified (nickel agarose, TEV cleavage, second Ni column, Superdex 200); not shown: His6, N-terminal, cleaved
- binding result [5]: binds

B6: His6-tagged PPM1H^WT-LD (residues 33-514, loop 188-226 replaced by GSGS, C56A) (enzyme, human)
chain: SDLPLRFPYGRPEFLGLSQDEVEASADHIARPILILKETRRLPWATGYAEVINAGKSTHNEDQASCEVLTVKKKAGAVTSTPNRNSSKRRSSLPNGEGLQLKENSESEGVSCHYWSLFDGHAGSGAAVVASRLLQHHITEQLQDIVDILKNSAVLGSGSTRFFTEKKIPHECLVIGALESAFKEMDLQIERERSSYNISGGCTALIVICLLGKLYVANAGDSRAIIIRNGEIIPMSSEFTPETERQRLQYLAFMQPHLLGNEFTHLEFPRRVQRKELGKKMLYRDFNMTGWAYKTIEDEDLKFPLIYGEGKKARVMATIGVTRGLGDHDLKVHDSNIYIKPFLSSAPEVRIYDLSKYDHGSDDVLILATDGLWDVLSNEEVAEAITQFLPNCDPDDPHRYTLAAQDLVMRARGVLKDRGWRISNDRLGSGDDISVYVIPLIHGNKLS
notes: PPM1H phosphatase, human, residues 33-187 with C56A; short linker that replaces the loop 188-226; PPM1H phosphatase, human, residues 227-514; Same construct as m2 but with the His6 tag kept for SEC-MALS (calculated about 52.1 kDa); source: E. coli, purified (Ni-agarose, Superdex 200); not shown: His6, N-terminal, kept
- stoichiometry N [6]: 2
